Laboratory results from publication PMC9482650, “Quantitative fragmentomics allow affinity mapping of interactomes” (Nature Communications, 2022).
Changes are numbered by the printed parent chain.

What was measured:
Assay in all cases: holdup assay
Parameters in all cases: key: below the threshold = too weak to quantify, mostly under pKd 3.1 to 4
[1] = target: Inadl_1, Q8NI35
[2] = target: T1, LIN7B, Q9HAP6
T1 sequence (Q9HAP6 88-185, limits assumed, looked up): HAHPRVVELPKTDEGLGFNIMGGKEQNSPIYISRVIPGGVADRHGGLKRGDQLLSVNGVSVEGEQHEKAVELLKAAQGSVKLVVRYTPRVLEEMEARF

[3] = target: MAGI2_6, Q86UL8
MAGI2_6, Q86UL8, sequence (Q86UL8 1141-1229): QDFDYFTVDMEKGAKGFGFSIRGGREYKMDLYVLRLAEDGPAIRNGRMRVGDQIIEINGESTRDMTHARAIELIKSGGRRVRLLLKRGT

[4] = target: IL16_4, Q14005
IL16_4, Q14005, sequence (Q14005 1229-1329): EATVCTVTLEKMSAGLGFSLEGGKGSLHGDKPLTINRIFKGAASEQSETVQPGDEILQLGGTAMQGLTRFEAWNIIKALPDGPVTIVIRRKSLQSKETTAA

[5] = target: T2, SNTB1, Q13884; details: plain residues with an end cap or a label only (N-terminal biotin on a linker: ttds)
T2 sequence (Q13884 107-205, limits assumed, looked up): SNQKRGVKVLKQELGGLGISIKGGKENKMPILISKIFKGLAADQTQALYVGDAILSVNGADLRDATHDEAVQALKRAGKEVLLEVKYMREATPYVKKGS

[6] = target: MAGI1_1, Q96QZ7
MAGI1_1, Q96QZ7, sequence (Q96QZ7 1-106): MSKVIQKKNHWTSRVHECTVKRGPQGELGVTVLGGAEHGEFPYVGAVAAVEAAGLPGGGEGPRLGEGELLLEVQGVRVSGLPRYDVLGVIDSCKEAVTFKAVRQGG

[7] = target: GRASP, Q7Z6J2
GRASP, Q7Z6J2, sequence (Q7Z6J2 96-193): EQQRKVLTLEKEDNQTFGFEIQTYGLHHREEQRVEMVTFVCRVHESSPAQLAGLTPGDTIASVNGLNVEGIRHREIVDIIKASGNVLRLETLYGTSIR

[8] = target: T3, MPDZ_5, O75970
T3 sequence (O75970 695-796, limits assumed, looked up): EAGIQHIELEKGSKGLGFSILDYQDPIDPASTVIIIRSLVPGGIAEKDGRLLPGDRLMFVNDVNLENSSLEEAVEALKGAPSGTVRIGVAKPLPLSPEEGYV

[9] = target: T4, GRIP1_5, Q9Y3R0
T4 sequence (Q9Y3R0 568-668, limits assumed, looked up): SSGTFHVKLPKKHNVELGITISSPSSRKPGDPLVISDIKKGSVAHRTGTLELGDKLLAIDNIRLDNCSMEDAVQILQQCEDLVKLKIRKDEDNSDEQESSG

[10] = target: PICK1, Q9NRD5
PICK1, Q9NRD5, sequence (Q9NRD5 17-115): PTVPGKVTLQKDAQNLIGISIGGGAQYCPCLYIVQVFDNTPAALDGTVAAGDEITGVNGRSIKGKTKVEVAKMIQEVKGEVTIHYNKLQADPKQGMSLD

[11] = target: T5, ARHGAP21, Q5T5U3
T5 sequence (Q5T5U3 45-169, limits assumed, looked up): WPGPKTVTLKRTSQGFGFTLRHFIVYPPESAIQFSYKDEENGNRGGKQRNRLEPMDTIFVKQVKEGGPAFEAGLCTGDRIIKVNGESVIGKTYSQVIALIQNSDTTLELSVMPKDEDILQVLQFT

[12] = target: T6, CARD11, Q9BXL7
T6 sequence (Q9BXL7 662-765, limits assumed, looked up): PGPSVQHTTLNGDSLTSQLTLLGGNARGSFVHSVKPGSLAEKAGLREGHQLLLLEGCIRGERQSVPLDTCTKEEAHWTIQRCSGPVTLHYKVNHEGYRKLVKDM

[13] = target: T7, LIN7A, O14910
T7 sequence (O14910 103-200, limits assumed, looked up): T1 sequence (Q9HAP6 88-185, limits assumed, looked up) with A2S, I20V, V35I, D42E, Q65H, Q77K, G78D, R89K

[14] = target: T8, HTRA3, P83110
T8 sequence (P83110 354-453, limits assumed, looked up): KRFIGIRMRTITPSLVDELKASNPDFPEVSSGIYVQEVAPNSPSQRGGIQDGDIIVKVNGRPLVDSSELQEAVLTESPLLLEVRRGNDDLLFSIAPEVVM

[15] = target: T9, LRRC7, Q96NW7
T9 sequence (Q96NW7 1440-1537, limits assumed, looked up): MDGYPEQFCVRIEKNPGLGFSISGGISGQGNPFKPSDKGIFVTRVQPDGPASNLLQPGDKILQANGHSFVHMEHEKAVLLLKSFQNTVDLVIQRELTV

[16] = target: T10, NHERF3_4, Q5T2W1
T10 sequence (Q5T2W1 373-468, limits assumed, looked up): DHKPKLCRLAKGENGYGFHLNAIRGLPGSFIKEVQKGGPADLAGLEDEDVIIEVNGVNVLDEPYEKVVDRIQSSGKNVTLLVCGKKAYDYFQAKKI

[17] = target: TJP2_1, Q9UDY2
TJP2_1, Q9UDY2, sequence (Q9UDY2 24-128): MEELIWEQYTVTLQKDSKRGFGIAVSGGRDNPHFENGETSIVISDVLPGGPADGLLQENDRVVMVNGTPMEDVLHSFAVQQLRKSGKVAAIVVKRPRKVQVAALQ

[18] = target: GRID2IP_1, A4D2P6
GRID2IP_1, A4D2P6, sequence (A4D2P6 1-87): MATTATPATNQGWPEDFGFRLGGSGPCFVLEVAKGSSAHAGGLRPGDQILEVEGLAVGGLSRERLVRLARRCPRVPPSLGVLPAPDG

[19] = target: AHNAK1, Q09666
AHNAK1, Q09666, sequence (Q09666 4-100): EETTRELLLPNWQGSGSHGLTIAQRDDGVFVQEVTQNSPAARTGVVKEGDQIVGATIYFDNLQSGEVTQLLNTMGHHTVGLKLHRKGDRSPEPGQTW

[20] = target: T11, TIAM2, Q8IVF5
T11 sequence (Q8IVF5 885-986, limits assumed, looked up): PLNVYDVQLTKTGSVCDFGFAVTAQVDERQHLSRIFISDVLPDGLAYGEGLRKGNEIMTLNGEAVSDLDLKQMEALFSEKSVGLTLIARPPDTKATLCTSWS

[21] = target: Inadl_9, Q8NI35
Inadl_9, Q8NI35, sequence (Q8NI35 1530-1615): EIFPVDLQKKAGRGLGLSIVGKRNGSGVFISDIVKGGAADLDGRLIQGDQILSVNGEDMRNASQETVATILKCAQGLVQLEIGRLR

[22] = target: PDZRN4_1, Q6ZMN7
PDZRN4_1, Q6ZMN7, sequence (Q6ZMN7 213-318): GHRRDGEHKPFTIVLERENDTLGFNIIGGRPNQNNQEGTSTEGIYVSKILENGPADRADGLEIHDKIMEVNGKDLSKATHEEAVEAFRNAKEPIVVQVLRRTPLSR

[23] = target: T12, SNTG1, Q9NSN8
T12 sequence (Q9NSN8 52-150, limits assumed, looked up): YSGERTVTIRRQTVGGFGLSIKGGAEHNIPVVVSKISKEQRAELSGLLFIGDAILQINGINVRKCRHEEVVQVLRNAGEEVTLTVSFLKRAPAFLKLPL

[24] = target: T13, LNX2_3, Q8N448
T13 sequence (Q8N448 463-564, limits assumed, looked up): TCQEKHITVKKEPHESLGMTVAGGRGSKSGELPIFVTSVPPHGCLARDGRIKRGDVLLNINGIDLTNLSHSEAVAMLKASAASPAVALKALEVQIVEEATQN

[25] = plain residues with an end cap or a label only (N-terminal biotin on a linker: ttds)
[26] = plain residues with an end cap or a label only (N-terminal biotin on a linker: ahx)

Measured: pKd

Inadl_1, Q8NI35, sequence (Q8NI35 113-229): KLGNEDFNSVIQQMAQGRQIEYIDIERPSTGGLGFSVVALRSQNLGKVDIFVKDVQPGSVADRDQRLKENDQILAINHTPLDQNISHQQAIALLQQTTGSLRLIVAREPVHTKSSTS

QRQARSETLV [HPV59-E6, Q81964]
4.17: [23]; [25]
3.74: [3]; [25]
3.86: [5]
3.69: [14]; [25]
3.81: [8]; [25] | [17]; [25]
below the threshold: [1]; [25] | [2]; [25] | [4]; [25] | [6]; [25] | [7]; [25] | [9]; [25] | [11]; [25] | [12]; [25] | [13]; [25] | [15]; [25] | [16]; [25] | [18]; [25] | [19]; [25] | [20]; [25] | [21]; [25] | [24]; [25]
3.85: [10]; [25]
4.04: [22]; [25]

NDPAWDETNL [ARHGEF7, Q14155;Q14155-1]
4.26: [5] | [23]; [25]
below the threshold: [2]; [25] | [4]; [25] | [6]; [25] | [7]; [25] | [8]; [25] | [9]; [25] | [10]; [25] | [12]; [25] | [13]; [25] | [14]; [25] | [16]; [25] | [17]; [25] | [18]; [25] | [19]; [25] | [20]; [25] | [21]; [25] | [24]; [25]
3.98: [22]; [25]
3.92: [3]; [25]

LSDPSVSTVV [GRIN1, Q05586;Q05586-2]
below the threshold: [1]; [26] | [2]; [26] | [3]; [26] | [4]; [26] | [6]; [26] | [8]; [26] | [9]; [26] | [10]; [26] | [11]; [26] | [12]; [26] | [13]; [26] | [14]; [26] | [15]; [26] | [16]; [26] | [17]; [26] | [18]; [26] | [19]; [26] | [20]; [26] | [21]; [26] | [22]; [26] | [23]; [26] | [24]; [26]
3.94: [7]; [26]

EMDRRPATVV [PLCB4, Q15147]
4.01: [7]; [25]
below the threshold: [2]; [25] | [3]; [25] | [4]; [25] | [6]; [25] | [9]; [25] | [10]; [25] | [13]; [25] | [14]; [25] | [15]; [25] | [16]; [25] | [17]; [25] | [18]; [25] | [19]; [25] | [20]; [25] | [23]; [25] | [24]; [25]
4.71: [5]
3.66: [8]; [25]
3.91: [22]; [25]
3.64: [11]; [25] | [12]; [25]

PRVKPQRSKV [PPP1R13L, Q8WUF5]
below the threshold: [2]; [25] | [3]; [25] | [4]; [25] | [6]; [25] | [8]; [25] | [10]; [25] | [11]; [25] | [12]; [25] | [13]; [25] | [14]; [25] | [15]; [25] | [16]; [25] | [17]; [25] | [18]; [25] | [19]; [25] | [20]; [25] | [21]; [25] | [22]; [25] | [23]; [25] | [24]; [25]
3.65: [5] | [9]; [25]
3.66: [1]; [25]
4.39: [7]; [25]

SKPTRRETEV [HPV35-E6, P27228]
4.68: [5]
3.59: [15]; [25]
3.49: [2]; [25] | [3]; [25]
below the threshold: [1]; [25] | [4]; [25] | [6]; [25] | [7]; [25] | [8]; [25] | [9]; [25] | [10]; [25] | [11]; [25] | [12]; [25] | [13]; [25] | [14]; [25] | [16]; [25] | [17]; [25] | [18]; [25] | [19]; [25] | [20]; [25] | [21]; [25] | [24]; [25]
4.31: [23]; [25]
4.38: [22]; [25]
